Patent CN114106164A (HANGZHOU PINK BIOTECHNOLOGY LTD COMPANY, dated 2022)

Legend:
[1] = target: T1, SARS-CoV-2-RBD蛋白 (重组6X His标记的RBD蛋白) (SARS-CoV-2, UniProt P0DTC2 319-541); assay: indirect ELISA, ascites, antigen coated 3ug/ml
[2] = target: T1, SARS-CoV-2-RBD蛋白 (重组6X His标记的RBD蛋白); assay: indirect ELISA, purified antibody, antigen coated 3ug/ml
[3] = target: T2, SARS-CoV Spike/RBD Protein(RBD,His Tag)，货号40150-V08B2 (SARS-CoV, UniProt P59594 306-527); assay: ELISA, cross-reactivity test
T2 construct: domain: RBD

[4] = target: T3, MERS-CoV Spike/RBD Protein fragment(RBD,aa 367-606,His Tag)，货号40071-V08B1 (MERS-CoV, UniProt K9N5Q8 367-606); assay: ELISA, cross-reactivity test
T3 construct: range 367-606; Bought reagent

| Binder | ELISA OD at 稀释倍数 100 [1] | ELISA OD at 稀释倍数 500 [1] | ELISA OD at 稀释倍数 2500 [1] | ELISA OD at 稀释倍数 12500 [1] | ELISA OD at 稀释倍数 62500 [1] | ELISA OD at 稀释倍数 312500 [1] | ELISA OD at 稀释倍数 1562500 [1] | ELISA OD at 1.28ng/ml [2] | ELISA OD at 6.4ng/ml [2] | ELISA OD at 32ng/ml [2] | ELISA OD at 160ng/ml [2] | ELISA OD at 800ng/ml [2] | ELISA OD at 4ug/ml [2] | ELISA OD at 20ug/ml [2] | binding result [3] | binding result [4] |
| --- | --- | --- | --- | --- | --- | --- | --- | --- | --- | --- | --- | --- | --- | --- | --- | --- |
| A2-2 (antibody, V domains shown) VH: not shown VL: EIVLTQSPGTLSLSPGERATLSCRASQTVRSDLAWYQQKPGQAPRLLIYGASTRATDISDRFSGSGSGTEFTLTISSLQSEDFAVYYCQQYYEWPPHSDSFGGGTKVEIK | 1.53 | 1.49 | 1.46 | 1.06 | 0.508 | 0.155 | 0.077 | 0.115 | 0.229 | 0.447 | 0.689 | 1.27 | 1.62 | 1.72 |  |  |
| B1-1 (antibody, V domains shown) VH: QVQLVESGGGLVQPGGSLRLSCAASGFTFDDYAMSWVRQAPGKGLEWVSNIYSYISTTHYADSVKGRFTISTDNAKNTLYLQMNSLKPEDTAVYYCAARRLDTTDYKYWGQGTQVTVSS | 1.43 | 1.31 | 1.4 | 1.26 | 0.545 | 0.19 | 0.084 | 0.072 | 0.088 | 0.154 | 0.38 | 0.929 | 1.19 | 1.35 |  |  |
| B1-2 (antibody, V domains shown) VH: QVQLVESGGGFVQPGGSLRLSCAVSGGTFSTYGMGWFRQAPGKEREIVAAIRRSGSTYYADSVRGRFTISRDNAKNSVLLQMNSLKPEDTAVYYCAARRAGREYEYWGQGTQVTVSS | 1.85 | 1.61 | 1 | 0.297 | 0.118 | 0.091 | 0.081 | 0.073 | 0.085 | 0.127 | 0.26 | 0.647 | 1.49 | 2.04 |  |  |
| A2-4 (antibody, V domains shown) VH: EVKLMESGGGLVQPGGSLKLSCAASGFDFSRYWMSWVRQAPGEGLEWIGEINPDSSTISYTPSLKDKFIISRDNAKNTLYLQMSKVRSEDTALYYCARRGLLLLTMDYWGQGTSVTVSS VL: DIVMTQSPKSLSMSVGERVTLSCKASENVDTYVSWYQQKPEQSPKLLIYGASNRYTGVPDRFTGSGSATYFTLTISSVQAEDLADYHCGQTYSYPFTFGSGTKLEIK | 1.39 | 1.36 | 1.43 | 0.84 | 0.373 | 0.121 | 0.072 | 0.106 | 0.126 | 0.149 | 0.279 | 0.584 | 1.33 | 1.95 |  |  |
| Mouse anti-SARS-COV-2 Mab1(RBD-Ab) (antibody, V domains shown, also called B1-5; B1-5号抗体) VH: VKLQESGAELVRPGTSVKVSCKASGYAFTNYLIEWVKQRPGQGLEWIGVINPGSGGTNYNEKFKGKATLTADKSSSTAYMQLSSLTSDDSAVYFCARGRADYWGQGTSVTVSS VL: DILMTQSPSSMSVSLGDTVSITCHASQGFSSNIGWLQQKPGKSFKGLIYHGTNLEDGVPSRFSGSGSGADYSLTISSLESEDFADYYCVQYAQFPYTFGGGTKLEIK |  |  |  |  |  |  |  |  |  |  |  |  |  |  | no binding | no binding |
